According to the supplement of paper PMC10567573:

B1: LMNB1 (parent)
chain: LYKEELEQTYHAKLENARLSSEMN

Variants of: B1
Assay: protein stability index of a GFP-peptide fusion (GPS, HEK-293T) (PSI 1-6); higher = more stable
Details: c terminus: a fixed tail appended
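Also: lentivirally expressed fusions sorted by FACS into six bins by GFP to DsRed ratio, PSI derived from sequencing read proportions per bin multiplied by bin number.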

Protein stability index, by site and new letter:
L19: T 3.6, A 3.67, W 1.8, Q 3.92, F 2.68
N16: K 2.98, P 3.33, R 2.92, M 3.03, D 2.92, S 2.42, E 4, Y 1.83, T 2.96, I 2.35, H 3.14, C 2.48, A 2.98, Q 3.32, G 2.27, L 3.23, F 1.89, V 2.3
M23: V 2.46, R 3.21, A 3.24, T 2.52, L 2.19, I 2.6, P 2.67, G 2.8, K 3.28, H 2.94, N 2.95, Q 3.04, E 2.89, C 2.76, F 2.42, S 2.87, D 2.82, Y 1.6, W 2.58
S20: P 3.18, F 2.29, Y 1.93, K 3.6, V 2.88, H 2.73, L 3.38, N 3.07, C 2.21, E 2.04, G 2.7, W 1.82, D 2.71, M 2.58, I 2.81, R 3.26, A 2.63, T 2.74, Q 2.91
E15: R 2.76, N 2.71, K 2.98, W 1.94, M 1.94, V 2.01, T 2.25, Y 2.47, L 2.9, I 2.44, G 2.65, Q 2.58, S 2.33, D 3.48, P 3.31, H 2.38, C 2.06, F 2.38, A 2.61
E22: G 2.81, L 2.68, T 2.35, S 3.44, R 2.88, Y 2.4, A 2.63, M 2.58, I 2.74, V 2.42, D 2.62, K 2.61, N 3.3, Q 2.73, P 2.4, F 1.93, W 1.74, C 2.83, H 2.22
A17: V 1.41, C 1.82, K 3.9, W 1.78, G 4.01, Y 2.2, H 3.52, D 4.14, M 1.98, L 2.44, Q 3.72, R 3.71, N 3.86, T 2.61, P 2.66, E 4.26, F 1.82, I 1.97, S 3.61
S21: G 2.51, R 2.25, L 1.78, I 2.35, T 2.83, C 2.02, P 2.37, W 1.82, F 2.42, M 2.72, Q 2.55, V 2.26, N 2.55, K 2.91, H 2.59, A 2.68, Y 2.1, D 3.48, E 3.18
A12: V 3.48, W 2.65, S 4.29, P 3.73, K 4.32, L 3.17, Q 4.25, M 2.36, N 4.38, T 4.08, Y 3.52
K13: A 3.93, P 4.37, G 4.57, S 2.82, Y 1.84, D 4.59, V 2.8, R 2.55, C 2.71, F 2.25, Q 3.06, L 2.38, M 2.48, T 2.06, I 1.95, N 3.35, E 4.33, H 3.08, W 2.65
